Patent US20100310646A1 (AARHUS UNIVERSITET, published 2010)

How the values were obtained:
[1] = molecular target: T1, human pregnancy-associated plasma protein-A (PAPP-A) (human, UniProt Q13219 82-1627); experiment: ELISA
T1 construct: Recombinant, from 293T cells; also called human PAPP-A; full-length PAPP-A

[2] = molecular target: T2, PA 1-950 (fragment of human PAPP-A, residues 1-950) (human, UniProt Q13219 82-1030); experiment: binding of PAC5 to fragments of human PAPP-A
T2 sequence: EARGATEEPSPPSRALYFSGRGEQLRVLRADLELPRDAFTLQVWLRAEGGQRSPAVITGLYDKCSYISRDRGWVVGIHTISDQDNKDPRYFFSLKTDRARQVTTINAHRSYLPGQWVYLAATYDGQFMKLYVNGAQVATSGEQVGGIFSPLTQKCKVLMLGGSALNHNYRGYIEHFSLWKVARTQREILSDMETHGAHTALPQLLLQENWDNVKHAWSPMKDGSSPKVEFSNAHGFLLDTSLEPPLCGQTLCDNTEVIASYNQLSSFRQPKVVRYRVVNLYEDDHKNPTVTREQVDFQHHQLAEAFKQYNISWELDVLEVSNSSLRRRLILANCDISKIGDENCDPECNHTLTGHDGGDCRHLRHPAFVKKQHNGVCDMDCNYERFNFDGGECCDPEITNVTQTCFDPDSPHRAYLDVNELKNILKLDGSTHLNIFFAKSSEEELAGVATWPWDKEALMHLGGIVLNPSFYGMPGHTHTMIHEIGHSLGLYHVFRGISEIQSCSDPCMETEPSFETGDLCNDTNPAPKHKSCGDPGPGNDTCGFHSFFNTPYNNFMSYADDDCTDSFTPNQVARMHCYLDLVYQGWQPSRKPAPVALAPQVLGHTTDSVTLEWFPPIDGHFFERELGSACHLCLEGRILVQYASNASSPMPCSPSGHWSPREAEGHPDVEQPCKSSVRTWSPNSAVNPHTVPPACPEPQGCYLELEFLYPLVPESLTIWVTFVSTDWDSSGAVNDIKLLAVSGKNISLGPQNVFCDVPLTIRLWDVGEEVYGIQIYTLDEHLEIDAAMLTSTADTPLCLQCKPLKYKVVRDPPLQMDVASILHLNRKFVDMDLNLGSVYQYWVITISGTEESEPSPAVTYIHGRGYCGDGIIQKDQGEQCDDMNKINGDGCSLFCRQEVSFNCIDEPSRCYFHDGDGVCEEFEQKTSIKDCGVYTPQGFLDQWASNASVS

[3] = molecular target: T3, PA 937-1547 (fragment of human PAPP-A, residues 937-1547) (human, UniProt Q13219 1017-1627); experiment: binding of PAC5 to fragments of human PAPP-A
T3 sequence: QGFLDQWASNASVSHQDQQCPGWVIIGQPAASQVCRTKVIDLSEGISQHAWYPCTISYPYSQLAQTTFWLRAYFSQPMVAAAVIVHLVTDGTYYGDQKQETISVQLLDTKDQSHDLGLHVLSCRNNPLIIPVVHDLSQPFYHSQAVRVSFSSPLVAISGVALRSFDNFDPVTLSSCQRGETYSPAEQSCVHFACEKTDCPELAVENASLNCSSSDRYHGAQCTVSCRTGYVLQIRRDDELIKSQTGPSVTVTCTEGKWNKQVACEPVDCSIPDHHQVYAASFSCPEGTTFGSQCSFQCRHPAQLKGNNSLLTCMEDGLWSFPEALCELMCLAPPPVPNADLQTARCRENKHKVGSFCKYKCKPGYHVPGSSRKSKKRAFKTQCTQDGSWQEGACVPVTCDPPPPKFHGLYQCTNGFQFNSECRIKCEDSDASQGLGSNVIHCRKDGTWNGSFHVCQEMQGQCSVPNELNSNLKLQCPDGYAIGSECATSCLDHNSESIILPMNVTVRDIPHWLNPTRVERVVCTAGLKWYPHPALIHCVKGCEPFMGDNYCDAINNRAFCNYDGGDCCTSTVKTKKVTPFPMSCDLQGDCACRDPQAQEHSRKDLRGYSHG

[4] = molecular target: T4, PA 1-599 (fragment of human PAPP-A, residues 1-599) (human, UniProt Q13219 82-679); experiment: binding of PAC5 to fragments of human PAPP-A
T4 sequence: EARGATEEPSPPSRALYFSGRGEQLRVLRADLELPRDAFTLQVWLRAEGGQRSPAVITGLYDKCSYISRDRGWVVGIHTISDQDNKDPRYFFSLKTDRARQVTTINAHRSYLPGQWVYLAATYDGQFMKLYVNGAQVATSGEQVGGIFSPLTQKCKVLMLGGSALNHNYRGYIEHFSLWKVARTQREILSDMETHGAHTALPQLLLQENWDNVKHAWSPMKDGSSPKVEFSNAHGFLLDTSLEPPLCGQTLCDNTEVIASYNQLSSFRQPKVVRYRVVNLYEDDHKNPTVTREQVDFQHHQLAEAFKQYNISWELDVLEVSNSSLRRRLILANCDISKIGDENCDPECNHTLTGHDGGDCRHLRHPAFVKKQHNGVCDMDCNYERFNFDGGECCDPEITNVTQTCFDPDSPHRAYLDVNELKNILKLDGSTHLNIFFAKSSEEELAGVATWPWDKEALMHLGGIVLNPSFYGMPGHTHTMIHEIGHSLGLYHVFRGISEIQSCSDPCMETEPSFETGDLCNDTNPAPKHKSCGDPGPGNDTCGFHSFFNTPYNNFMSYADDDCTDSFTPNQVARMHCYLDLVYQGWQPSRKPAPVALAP

[5] = molecular target: human PAPP-A(D1484A) (human, UniProt Q13219 82-1627); experiment: ELISA, PAPP-A mutant captured with polyclonal PAPP-A antibodies
Experimental: (§1) A, PAC1 binding to human PAPP-A/PAPP-A2 chimeras or truncated human PAPP-A variants analyzed by ELISA. Sequence derived from PAPP-A is shown by open bars, and absence of binding (−) or binding (+) is indicated. […] Samples with or without EDTA (10 mM) were injected (120 s) followed by dissociation (180 s) (solid lines). […] The absence of binding (−) or binding (+) is indicated. PAC5, which was used as a positive control, binds to an epitope of PAPP-A located N-terminal to CCP1.
(§2) Determination of antibody specificity and mapping of antibody binding—Mapping of antibody binding was carried out by ELISA using PAPP-A/PAPP-A2 chimeric proteins, and mutated variants of PAPP-A. The proteins were immobilized with polyclonal PAPP-A antibodies, and binding of phage antibodies were analyzed as detailed above.

[6] = molecular target: human PAPP-A(D1499A) (human, UniProt Q13219 82-1627); experiment: as above
Experimental: as §1, §2

[7] = molecular target: human PAPP-A(D1502A) (human, UniProt Q13219 82-1627); experiment: as above
Experimental: as §1, §2

B1: PAC5 (PAPP-A non-exosite antibody, scFv) (scFv)
scFv: EVQLLESGGGLVQPGGSLRLSCAASGFTFSSYAMSWVRQAPGKGLEWVSAISPAGVMTQYADSVKGRFTISRDNSKNTLYLQMNSLRAEDTAVYYCAKQQGGFDYWGQGTLVTVSSGGGGSGGGGSGGGGSTDIQMTQSPSSLSASVGDRVTITCRASQSISSYLNWYQQKPGKAPKLLIYRASALQSGVPSRFSGSGSGTDFTLTISSLQPEDFATYYCQQPIARPPTFGQGTKVEIKRAAAHHHHHHGAAEQKLISEEDLNGAA
notes: Obtained by screening on full-length human PAPP-A and used as a control antibody in the scFv format; also called clone PAC5
Question: Which results are given for B1?
Answer: binding result [1]: binds; binding result [2]: binds; binding result [3]: no binding; binding result [4]: no binding; binding result [5]: binds; binding result [6]: binds; binding result [7]: binds
